Experimental data as given in patent US10227388B2, “Peptides and combination of peptides for use in immunotherapy against non-small cell lung cancer and other cancers” (immatics biotechnologies GmbH, priority 2015, dated 2019).

molecular target: HLA-A*02:01 (Homo sapiens, UniProt P04439, D140Y/D185E/D98H/E176V/E277Q/G131W/G231S/I119V/I121R/I166T/I218V/L300P/L318F/N151K/N90K/P208A/P217A/Q86G/Q94H/R138H/R169H/T345S); experiment: MHC binding assay (UV-ligand exchange, ELISA, peptide exchange yield); conditions: binding of HLA-class I restricted peptides to HLA-A*02:01
Procedure, shortened: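 Peptide–HLA-A*02:01 complexes made by UV-ligand exchange of a UV-cleavable peptide for the test peptide. Exchange yield measured by ELISA: 100-fold diluted monomers captured on streptavidin, 1 h at 37° C., detected with HRP anti-β2m and TMB, absorbance at 450 nm.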

Row | Substance | Peptide exchange (MHC class I binding score, peptide exchange yield)
1 | 152 (ILFEDIFDV; listed as Homo sapiens) [compound 152] | ″+++″ (≥50% = +++)
2 | 196 (YLYSVEIKL; listed as Homo sapiens) [compound 196] | ″++++″ (≥75% = ++++)
3 | 556 (FLTDLEDLTL; listed as Homo sapiens) [compound 556] | ″+++″ (≥50% = +++)
4 | 285 (QLLHVGVTV; listed as Homo sapiens) [compound 285] | ″+++″ (≥50% = +++)
5 | 578 (FLDPGGPMMKL; listed as Homo sapiens) [compound 578] | ″+++″ (≥50% = +++)
6 | 600 (ALAAPDIVPAL; listed as Homo sapiens) [compound 600] | ″+++″ (≥50% = +++)
7 | 395 (ALALGGIAVV; listed as Homo sapiens) [compound 395] | ″++++″ (≥75% = ++++)
8 | 116 (YHIDEEVGF; listed as Homo sapiens) [compound 116] | ″+″ (≥10% = +)
9 | 99 (ALVSKGLATV; listed as Homo sapiens) [compound 99] | ″++″ (≥20% = ++)
10 | 279 (ALWGGTQPLL; listed as Homo sapiens) [compound 279] | ″++″ (≥20% = ++)
11 | 39 (SVAPNLPAV; listed as Homo sapiens) [compound 39] | ″+++″ (≥50% = +++)
12 | 276 (ALFTFSPLTV; listed as Homo sapiens) [compound 276] | ″+++″ (≥50% = +++)
13 | 364 (LLQNEQFEL; listed as Homo sapiens) [compound 364] | ″+++″ (≥50% = +++)
14 | 211 (LLWPGAALL; listed as Homo sapiens) [compound 211] | ″++″ (≥20% = ++)
15 | 87 (ALPEAPAPLLPHIT; listed as Homo sapiens) [compound 87] | ″++″ (≥20% = ++)
16 | 78 (SLFSSLEPQIQPV; listed as Homo sapiens) [compound 78] | ″+++″ (≥50% = +++)
17 | 362 (TLYGLSVLL; listed as Homo sapiens) [compound 362] | ″+++″ (≥50% = +++)

Row | Substance | Peptide exchange (MHC class I binding score, peptide exchange yield)
18 | 185 (FLIDDKGYTL; listed as Homo sapiens) [compound 185] | ″++″ (≥20% = ++)
19 | 43 (VLSSLEINI; listed as Homo sapiens) [compound 43] | ″++″ (≥20% = ++)
20 | 461 (VMFRTPLASV; listed as Homo sapiens) [compound 461] | ″++″ (≥20% = ++)
21 | 115 (AIAGAGILYGV; listed as Homo sapiens) [compound 115] | ″++″ (≥20% = ++)
22 | 310 (FLVDTPLARA; listed as Homo sapiens) [compound 310] | ″++++″ (≥75% = ++++)
23 | 537 (TLAPGEVLRSV; listed as Homo sapiens) [compound 537] | ″+++″ (≥50% = +++)
24 | 342 (HIYDKVMTV; listed as Homo sapiens) [compound 342] | ″+++″ (≥50% = +++)
25 | 126 (VLAYFLPEA; listed as Homo sapiens) [compound 126] | ″++++″ (≥75% = ++++)
26 | 352 (SLLELLHIYV; listed as Homo sapiens) [compound 352] | ″+++″ (≥50% = +++)
27 | 17 (GLLPGDRLVSV; listed as Homo sapiens) [compound 17] | ″+++″ (≥50% = +++)
28 | 20 (RMIEYFIDV; listed as Homo sapiens) [compound 20] | ″+++″ (≥50% = +++)
29 | 71 (GILARIASV; listed as Homo sapiens) [compound 71] | ″+++″ (≥50% = +++)
30 | 181 (LLWAGTAFQV; listed as Homo sapiens) [compound 181] | ″+++″ (≥50% = +++)
31 | 549 (AMLENASDIKL; listed as Homo sapiens) [compound 549] | ″+++″ (≥50% = +++)
32 | 344 (YLQDQHLLLTV; listed as Homo sapiens) [compound 344] | ″+++″ (≥50% = +++)
33 | 186 (TLFFQQNAL; listed as Homo sapiens) [compound 186] | ″++″ (≥20% = ++)
34 | 62 (VLLDVSAGQLLM; listed as Homo sapiens) [compound 62] | ″++++″ (≥75% = ++++)

Other lines, results leading:

Row | Peptide exchange (MHC class I binding score, peptide exchange yield) | Substance
35 | ″+++″ (≥50% = +++) | 171 (LLLPLQILL; listed as Homo sapiens) [compound 171]
36 | ″+++″ (≥50% = +++) | 241 (SLVEVNPAYSV; listed as Homo sapiens) [compound 241]
37 | ″+++″ (≥50% = +++) | 102 (YLFESEGLVL; listed as Homo sapiens) [compound 102]
38 | ″+++″ (≥50% = +++) | 450 (FMIDASVHPTL; listed as Homo sapiens) [compound 450]
39 | ″+++″ (≥50% = +++) | 584 (ALAEVAAMENV; listed as Homo sapiens) [compound 584]
40 | ″+++″ (≥50% = +++) | 481 (GLIEDYEALL; listed as Homo sapiens) [compound 481]
41 | ″++++″ (≥75% = ++++) | 527 (FLLEPGNLEV; listed as Homo sapiens) [compound 527]
42 | ″+++″ (≥50% = +++) | 594 (IMLKGDNITL; listed as Homo sapiens) [compound 594]
43 | ″++″ (≥20% = ++) | 251 (ALYTGFSILV; listed as Homo sapiens) [compound 251]
44 | ″++″ (≥20% = ++) | 458 (SLIDKLYNI; listed as Homo sapiens) [compound 458]
45 | ″++++″ (≥75% = ++++) | 53 (KMIETDILQKV; listed as Homo sapiens) [compound 53]
46 | ″++″ (≥20% = ++) | 258 (ELAERVPAI; listed as Homo sapiens) [compound 258]
47 | ″+++″ (≥50% = +++) | 101 (ILVGGGALATV; listed as Homo sapiens) [compound 101]
48 | ″++″ (≥20% = ++) | 269 (RVLEVGALQAV; listed as Homo sapiens) [compound 269]
49 | ″+++″ (≥50% = +++) | 397 (YLFGERLLEC; listed as Homo sapiens) [compound 397]
50 | ″+++″ (≥50% = +++) | 46 (ILTEENIHL; listed as Homo sapiens) [compound 46]

Row | Peptide exchange (MHC class I binding score, peptide exchange yield) | Substance
51 | ″+++″ (≥50% = +++) | 469 (YLASDEITTV; listed as Homo sapiens) [compound 469]
52 | ″+++″ (≥50% = +++) | 326 (FLPEALDFV; listed as Homo sapiens) [compound 326]
53 | ″++++″ (≥75% = ++++) | 348 (ILLDVKTRL; listed as Homo sapiens) [compound 348]
54 | ″++″ (≥20% = ++) | 377 (FLLDSSASV; listed as Homo sapiens) [compound 377]
55 | ″+++″ (≥50% = +++) | 569 (KLVDRTWTL; listed as Homo sapiens) [compound 569]
56 | ″++++″ (≥75% = ++++) | 576 (ILLNNSGQIKL; listed as Homo sapiens) [compound 576]
57 | ″++″ (≥20% = ++) | 270 (LLLDEEGTFSL; listed as Homo sapiens) [compound 270]
58 | ″++″ (≥20% = ++) | 210 (LLLNAVLTV; listed as Homo sapiens) [compound 210]
59 | ″+++″ (≥50% = +++) | 502 (RLLAQVPGL; listed as Homo sapiens) [compound 502]
60 | ″+++″ (≥50% = +++) | 28 (QLLDETSAITL; listed as Homo sapiens) [compound 28]
61 | ″++″ (≥20% = ++) | 228 (AMQEYIAVV; listed as Homo sapiens) [compound 228]
62 | ″++″ (≥20% = ++) | 191 (LLQEGQALEYV; listed as Homo sapiens) [compound 191]
63 | ″+++″ (≥50% = +++) | 587 (VMNDRLYAI; listed as Homo sapiens) [compound 587]
64 | ″++″ (≥20% = ++) | 145 (FLATSGTLAGI; listed as Homo sapiens) [compound 145]
65 | ″++″ (≥20% = ++) | 580 (LLMENAERV; listed as Homo sapiens) [compound 580]
66 | ″++″ (≥20% = ++) | 80 (FLYDNLVESL; listed as Homo sapiens) [compound 80]
